From PMC8904574, “Bacterial F-type ATP synthases follow a well-choreographed assembly pathway” (Nature Communications, 2022)

B1: central stalk γε complex of the A. woodii F1 ATP synthase (atpG and atpC expressed bicistronically, His6 tag on ε) (complex, Acetobacterium woodii)
chain 1: MAENVQDIKRRIKSVNSTMQITHAMELVASAKLRKSRELAEGRRPYFEAMIESIGRIVEKSGNARNIFMDQREVKKTAYIIITGDKGLAGGYNVNVAKLVEEHITDKENAVLFTVGSRGRDHFRNREYHIQGEYLGISERPNFFNAKEVTAIVMEGFKNGEYDEVYIAYTKFVSTITQHAQMMKLLPLSAEELITSGKVKTTEETKEEKSKMSDRELTIMTYEPEPEELLKYLIPNFVSSTVYGSMIESAASEQGARRTAMESATTNANEMIDGLTLQYNRVRQAAITQEISEIVGGAEALN
chain 2: MAETFRLKIIAPTGVFFDDDIERVVIRGIEGELAILAEHTPLTTNVAIGTFNIIFADKKKKNGTLLGGIATINPRETIILTDAAEWPEEIDIKRAQEAKERALKRIHDDKFDTARARAALERAIARINSKENV
notes: ATP synthase subunit gamma (gene atpG) of the Na+-F1FO-ATP synthase, Acetobacterium woodii; ATP synthase subunit epsilon (gene atpC) of the Na+-F1FO-ATP synthase, Acetobacterium woodii; source: E. coli BL21gold(DE3), co-expressed, purified (Ni-NTA, SEC); copies: 1 + 1
B2: in vitro assembled αβ heterodimer (StrepI-α with His6-β, in ATP/Mg2+ or other nucleotide/Mg2+) (complex, Acetobacterium woodii)
chain 1: MNLRPEEISQIIKNEIERYEDKLEVVDVGTVIQVGDGVARVHGLENAMAGELLAFPNEVYGMVLNLEEDNVGCVLLGYDDDIVEGDIVRCTGRIVEVPVGEAMIGRVVNALGFPVDGKGPIVTDHRRPVEVKAAGVIERESVNQPIQTGYKAIDSMIPIGRGQRELIIGDRQTGKTALAIDTIINQKGEDVICIYVAIGQKDSTVAQIVGQLEENNAMDYTIIVSAGAAQLAPLQYIAPYSGVTMAEYFMNEQQKDVLIIYDDLSKHAVAYRAMSLILRRPPGREAYPGDVFYLHSRLLERAAKLKAGGSITALPIIETQAGDVSAYIPTNVISITDGQIFLEAELFRSGIRPAVNPGISVSRVGGSAQIKSMKKVAGPLRIEYAQYRELASFAQFGSDLDDETKAQLAKGERIVEILKQDQYDPMNVEDQVLILYAATNGFLLDIEVKDIREFEKGLIKFAQKKYPEIMTKVKGKDGLSDEVVAAFAECIEAYKKVFSKSV
chain 2: MAQNIGKVVQVIGPVVDVKFQKDKLPKLNNAVNIELNGHTLVIEVAQQLGDDIVRCIAMDSTDGLMRNQEAVDTGSAIQVPVGKATLGRMFNVLGEPIDGKPFDTKDVVMHPIHRHPPSFEEQQTQPEMFETGIKVVDLICPYVRGGKIGLFGGAGVGKTVLIQELINNIATQHGGLSVFAGVGERTREGNDLYYEMMESGVINKTALCFGQMNEPPGARMRIALAGLTMAEYFRDDEGQDVLLFIDNIFRFTQAGSEVSALLGRMPSAVGYQPTLATEMGALQERITSTSKGSITSVQAVYVPADDLTDPAPATTFAHLDATTVLSRAITEKGIYPAVDPLDSTSRILDPKIVGQEHYETAREVQEILQRYKELQDIIAILGMDELSDADKITVSRARKVERFLSQPFNVAEQFTGTAGVYVTIGDTIKGFKEILEGQHDDLPESAFLLVGTIEDAVVKAKKIKG
notes: ATP synthase subunit alpha (gene atpA), Acetobacterium woodii; as m1; ATP synthase subunit beta (gene atpD), Acetobacterium woodii; as m2; also called in vitro αβ; source: assembled in vitro from subunits purified from E. coli BL21gold(DE3); not shown: StrepI, N-terminal, kept; His6, N-terminal, kept; copies: 1 + 1
B3: α-subunit of the F1 part of the Na+-F1FO-ATP synthase of Acetobacterium woodii, N-terminal StrepI tag (natural protein, UniProt P50000 1-502, looked up)
chain: B2 chain 1
notes: ATP synthase subunit alpha (gene atpA) of the Na+-F1FO-ATP synthase, Acetobacterium woodii; also called α[WT]; StrepI-α; source: E. coli BL21gold(DE3), purified (Strep-Tactin, SEC); not shown: StrepI, N-terminal, kept
B4: β-subunit of the F1 part of the Na+-F1FO-ATP synthase of Acetobacterium woodii, N-terminal His6 tag (natural protein, UniProt P50002 1-466, looked up)
chain: B2 chain 2
notes: ATP synthase subunit beta (gene atpD) of the Na+-F1FO-ATP synthase, Acetobacterium woodii; also called β[WT]; His6-β; source: E. coli BL21gold(DE3), purified (Ni-NTA, SEC); also co-expressed with other F1 subunits in E. coli as the tagged subunit of the in cellula complexes; not shown: His6, N-terminal, kept

Columns and labels:
Conditions in all cases: both partners purified
[1] = target: B2; experiment: native MS; LILBID-MS; purified subunits incubated in 50 mM KPi, 200 mM NaCl, 2 mM ATP, 2 mM MgCl2, 10% glycerol, pH 7.4, 4 °C, 1 h; exchanged into 100 mM ammonium acetate, 2 mM ATP, 2 mM MgCl2, pH 7.4
[2] = target: T1, α[R363Q]β[WT] heterodimer assembled in vitro in ATP/Mg2+ (Acetobacterium woodii, UniProt P50000 1-502; P50002 1-466, R363Q); experiment: as above
T1 construct: ATP synthase subunit alpha (gene atpA), Acetobacterium woodii; as m9; ATP synthase subunit beta (gene atpD), Acetobacterium woodii; as m2; source: assembled in vitro from subunits purified from E. coli BL21gold(DE3); not shown: His6, N-terminal, kept; copies: 1 + 1

[3] = target: B1; experiment: as above
[4] = target: T2, α-subunit mutant α[R363K], A. woodii (Acetobacterium woodii, UniProt P50000 1-502, R363K); experiment: SEC; HPLC on a bioZen 1.8 µm SEC-3 column, 60 µg protein, elution buffer B (50 mM KPi, 200 mM NaCl, 2 mM ATP, 2 mM MgCl2, pH 7.4), 4 °C
T2 construct: ATP synthase subunit alpha (gene atpA), Acetobacterium woodii, point mutant; source: E. coli BL21gold(DE3), purified (Strep-Tactin, SEC)

[5] = target: T3, α-subunit mutant α[R363Q], A. woodii (Acetobacterium woodii, UniProt P50000 1-502, R363Q); experiment: as above
T3 construct: ATP synthase subunit alpha (gene atpA), Acetobacterium woodii, point mutant; source: E. coli BL21gold(DE3), purified (Strep-Tactin, SEC)

[6] = target: B3; experiment: native MS; LILBID-MS; purified subunits incubated in 50 mM KPi, 200 mM NaCl, 2 mM ATP, 2 mM MgCl2, 10% glycerol, pH 7.4, 4 °C, 1 h; exchanged into 100 mM ammonium acetate, 2 mM ATP, 2 mM MgCl2, pH 7.4

Binder: B1
binding result [1]: binds
binding result [2]: binds

Binder: B2
stoichiometry N [3]: 3

Binder: B3
stoichiometry N [3]: ≤ 1

Binder: B4
binding result [4]: binds
binding result [5]: binds
binding result [6]: binds
stoichiometry N [3]: ≤ 1
